The record followed here is paper PMC9628495.

The target of assay [1] is human complement C1q (human) (UniProt P02745).
The target of assay [2] is human FcγRIIIa-158V-GST (dimeric GST-fused form) (human).
The target in assay [3] is PFc29 (Q311R/M428L) Fc variant displayed on the E. coli inner membrane (human). In words: flow cytometry on cells; single clones rescued from the fourth round of screening, Fc displayed on E. coli spheroplasts, fluorescent hFcRn probe; screening at pH 5.8, pH of the clone analysis not stated; mean fluorescence intensity.
The target of assay [4] is EFc41 (P228L/L234F/E269D/Q342L/E388D/T394A/M428L) Fc variant displayed on the E. coli inner membrane (human). The description is as above.
Assay [5] addresses PFc41 (L309G/M428L) Fc variant displayed on the E. coli inner membrane (human). Described as above.
The target in assay [6] is hFcRn-SA-Alexa 488, P55899;P61769. In words: flow cytometry (FACS) of E. coli spheroplasts displaying Fc. The conditions noted are these: 40 nM hFcRn-SA-Alexa 488, read off a plot. Background: In flow cytometry, cells or beads pass a laser one at a time.
Assay [7] concerns the target trastuzumab-PFc29 (Q311R/M428L) (human). In words: SPR; Biacore T200; HER2 amine-coupled on a CM5 chip (~3000 RU), trastuzumab-Fc variants captured on it (~300 RU), hFcRn injected at 1000, 500, 250, 125 and 62.5 nM in PBS (printed '10x') with 0.05% Tween 20, pH 6.0, 50 μl/min; 1:1 binding model; 'Steady state' for trastuzumab with wild-type Fc. In general terms: SPR reads the build-up and loss of mass on a sensor chip optically.

The target of assay [8] is trastuzumab (wild-type Fc, prepared in-house) (human). Described as above.
In assay [9] the target is trastuzumab-YTE (M252Y/S254T/T256E) (human). The assay is described as above.
Assay [10] has as its target trastuzumab-LS (M428L/N434S) (human). The description is as above.
The target in assay [11] is trastuzumab-PFc41 (L309G/M428L) (human). The assay is described as above.
Setting [12] is: pH 5.8 in the image key (pH 6.0 in the legend), parent: est. 300.

Chain of human FcγRIIIa-158V-GST (dimeric GST-fused form) (human) (P08637 17-208): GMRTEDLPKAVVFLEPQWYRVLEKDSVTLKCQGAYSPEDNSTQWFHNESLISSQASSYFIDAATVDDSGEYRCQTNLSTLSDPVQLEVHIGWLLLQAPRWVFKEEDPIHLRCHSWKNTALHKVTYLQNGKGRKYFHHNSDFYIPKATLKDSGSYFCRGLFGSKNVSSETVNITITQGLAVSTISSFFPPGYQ
Chain of UniProt P02745 (P02745 23-245, chain 1 of 3): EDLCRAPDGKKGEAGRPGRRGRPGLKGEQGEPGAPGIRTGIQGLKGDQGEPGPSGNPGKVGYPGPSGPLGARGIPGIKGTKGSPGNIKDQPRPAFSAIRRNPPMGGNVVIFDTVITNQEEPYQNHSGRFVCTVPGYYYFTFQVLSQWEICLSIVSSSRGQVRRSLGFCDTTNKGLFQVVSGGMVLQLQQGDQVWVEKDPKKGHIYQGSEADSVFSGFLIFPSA
Chain of UniProt P02745 (P02746 28-253, chain 2 of 3, further chain): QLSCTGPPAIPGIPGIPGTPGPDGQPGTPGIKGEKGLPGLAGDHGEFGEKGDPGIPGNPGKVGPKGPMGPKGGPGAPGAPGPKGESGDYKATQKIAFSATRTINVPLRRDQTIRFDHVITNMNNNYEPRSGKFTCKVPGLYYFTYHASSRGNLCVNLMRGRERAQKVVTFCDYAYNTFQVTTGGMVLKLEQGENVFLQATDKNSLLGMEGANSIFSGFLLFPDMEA
Chain of UniProt P02745 (P02747 29-245, chain 3 of 3, further chain): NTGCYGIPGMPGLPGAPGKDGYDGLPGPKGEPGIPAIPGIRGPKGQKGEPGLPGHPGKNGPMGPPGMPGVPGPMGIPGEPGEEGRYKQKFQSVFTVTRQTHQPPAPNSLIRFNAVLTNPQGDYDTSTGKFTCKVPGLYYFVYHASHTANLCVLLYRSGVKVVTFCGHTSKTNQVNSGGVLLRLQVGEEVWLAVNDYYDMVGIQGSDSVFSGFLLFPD

“rituximab (wild-type Fc, prepared in-house) (antibody)” yielded an EC50 of CDC (lysis of Raji cells with normal human complement) in assay [1] of 0.33 µg/mL.

With trastuzumab-LS (M428L/N434S) (antibody), the EC50 of ADCC (ADCC Reporter Bioassay; SKBR-3 target cells, FcγRIIIa-158V-expressing engineered Jurkat effector cells; luminescence) in assay [2] was 0.061 µg/mL.

“trastuzumab (wild-type Fc, prepared in-house) (antibody)” gave an EC50 of ADCC (ADCC Reporter Bioassay; SKBR-3 target cells, FcγRIIIa-158V-expressing engineered Jurkat effector cells; luminescence) in [2] of 0.12 µg/mL. The same measure, in the same setting: to “trastuzumab-PFc29 (Q311R/M428L) (antibody)” belongs 0.051 µg/mL. Consider “Alexa 488-labelled hFcRn probe (FcRn-GST or FcRn-streptavidin) (from UniProt P55899 24-297; P61769 21-119) (complex)”, for which the MFI in assay [3] turned out to be 1180; in [4], 862; in assay [5], 1910. Consider “wild-type Fc displayed on the E. coli inner membrane M428L”, for which the response in assay [6] (setting [12]) turned out to be 430 MFI; in assay [6] (pH 7.4, parent: est. 30) it was 70 MFI. Consider “wild-type Fc displayed on the E. coli inner membrane Q311R; M428L”, for which the response in assay [6] (pH 7.4, parent: est. 30) was 80 MFI. For the substance “monomeric human FcRn (human FcRn α chain-His complexed with human β2-microglobulin) (from UniProt P55899 24-297; P61769 21-119)”, the Kd stood at 149 nM in assay [7]; 647 nM in assay [8]; 147 nM in assay [9]; 81.6 nM in [10]; 198 nM in assay [11]. Regarding “wild-type Fc displayed on the E. coli inner membrane Q311R”, the response in assay [6] (setting [12]) is 280 MFI; in [6] (pH 7.4, parent: est. 30) it was 40 MFI.

Broadly, the Kd is the constant that tells how readily two partners part at equilibrium.
